Reference: the supplement of paper PMC10567573

B1: SPACA3 (parent)
chain: FTSGFNAAALDYEADGSTNNGIFQ
B2: MMP1 (parent)
chain: FHGTRQYKFDPKTKRILTLQKANS

Variants of: B1
Assay: protein stability index of a GFP-peptide fusion (GPS, HEK-293T) (PSI 1-6); higher = more stable
Settings: c terminus: a fixed tail appended
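Note: lentivirally expressed fusions sorted by FACS into six bins by GFP to DsRed ratio, PSI derived from sequencing read proportions per bin multiplied by bin number.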

Protein stability index, by site and new letter:
I22: F 1.69 | G 2.25 | H 1.95 | K 1.93 | L 1.74 | M 2.5 | N 2.13 | P 1.94 | Q 2.13 | R 2.09 | S 1.86 | T 2.06 | V 1.69 | W 2.15 | Y 2.06
F23: A 2.1 | C 1.9 | D 2.5 | E 2.28 | G 2.54 | H 2.42 | I 2 | K 2.48 | L 2.08 | M 2.55 | N 2.4 | P 2.42 | Q 2.36 | R 2.16 | S 2.2 | T 2.92 | V 2.11 | W 1.64 | Y 1.98
Q24: A 1.47 | C 1.93 | D 2.02 | E 2.33 | F 1.92 | G 2.36 | H 2.46 | I 2.18 | K 1.87 | L 1.71 | M 1.46 | N 1.67 | P 1.99 | R 2.2 | S 1.85 | T 2.23 | V 1.17 | Y 1.74

Variants of: B2
Assay: as above
Settings: c terminus: a fixed tail appended

Protein stability index of substitutions, site by site:
F1: A 3 | C 2.95 | D 3.65 | E 3.91 | G 3.44 | H 3.12 | I 3.12 | K 3.33 | L 3.05 | M 3.13 | N 3.34 | P 3.17 | Q 3.32 | R 3.31 | S 3.43 | T 3.4 | V 3.18 | W 2.35 | Y 2.51
H2: A 1.69 | C 1.88 | D 3.55 | E 3.03 | F 2.34 | G 2.55 | I 2.47 | K 2.57 | L 2.36 | M 2.53 | N 2.33 | P 1.68 | Q 2.19 | R 3.04 | S 2.39 | T 2.04 | V 1.91 | W 2.29 | Y 2.35
G3: A 2.02 | C 2.63 | D 2.29 | E 2.61 | F 1.58 | H 2.23 | I 1.78 | K 1.93 | L 1.63 | M 1.78 | N 2.77 | P 2.68 | Q 1.67 | R 1.6 | S 1.54 | T 2.1 | V 2.3 | W 2.02 | Y 1.96
T4: A 1.81 | C 1.6 | D 2.43 | E 2.29 | F 3.12 | G 1.78 | H 1.68 | I 2.13 | K 2.17 | L 1.26 | M 1.8 | N 2.38 | P 1.61 | Q 2.95 | R 2.06 | S 2.08 | V 1.69 | W 3.19 | Y 2.98
R5: A 1.8 | C 1.79 | D 2.38 | E 2.02 | F 1.7 | G 1.88 | H 2.07 | I 2.21 | K 2.55 | L 2.2 | M 2.3 | N 1.98 | P 2.32 | Q 1.83 | S 1.72 | T 1.68 | V 2.04 | W 2.45 | Y 2.13
Q6: A 2.15 | C 1.9 | D 1.87 | E 2.12 | F 3.64 | G 1.61 | H 4.5 | I 2.39 | K 1.92 | L 1.83 | M 1.82 | N 1.92 | P 1.46 | R 1.5 | S 1.67 | T 1.6 | V 2.96 | W 2.63 | Y 2.04
Y7: A 2.31
